Source: paper PMC11428563

Molecular target: VEGF as named in the paper; reagent listed as Human VEGFR2 / KDR Protein, His Tag, Acrobiosystems KDR-H5227 (human) (UniProt P35968)
Test: BLI
Conditions: BLI (Octet R4, anti-penta-His HIS1K sensors): protein loaded in phosphate buffer pH 7.4 (PlGF 2.5 ug/mL, VEGF 10 ug/mL), aptamers 0-20 uM in 1X Sartorius …

VEGF as named in the paper; reagent listed as Human VEGFR2 / KDR Protein, His Tag, Acrobiosystems KDR-H5227 (human), sequence (P35968 20-764): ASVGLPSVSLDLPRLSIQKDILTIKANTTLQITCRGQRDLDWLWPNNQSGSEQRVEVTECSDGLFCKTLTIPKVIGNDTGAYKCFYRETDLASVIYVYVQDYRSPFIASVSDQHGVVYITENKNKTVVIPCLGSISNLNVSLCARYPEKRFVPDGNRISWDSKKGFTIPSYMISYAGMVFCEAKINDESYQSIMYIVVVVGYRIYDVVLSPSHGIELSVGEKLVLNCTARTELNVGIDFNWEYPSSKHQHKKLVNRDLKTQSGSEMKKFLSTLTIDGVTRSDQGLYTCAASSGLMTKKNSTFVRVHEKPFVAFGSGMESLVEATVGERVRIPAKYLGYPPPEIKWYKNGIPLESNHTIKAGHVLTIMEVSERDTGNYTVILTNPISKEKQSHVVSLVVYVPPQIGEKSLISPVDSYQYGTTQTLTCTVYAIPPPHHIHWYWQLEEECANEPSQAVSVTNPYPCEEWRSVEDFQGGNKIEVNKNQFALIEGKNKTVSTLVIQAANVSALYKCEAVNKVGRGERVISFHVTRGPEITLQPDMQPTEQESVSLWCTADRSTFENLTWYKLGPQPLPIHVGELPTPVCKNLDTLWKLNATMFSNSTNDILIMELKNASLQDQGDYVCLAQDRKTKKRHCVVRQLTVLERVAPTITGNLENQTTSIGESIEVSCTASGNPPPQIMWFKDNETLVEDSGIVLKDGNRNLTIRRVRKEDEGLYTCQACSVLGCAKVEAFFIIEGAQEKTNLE

Sequence	Kd [nM]	Kd (kon 9.164e1 1/Ms, koff 4.362e-7 1/s) [nM]
CGAAAACAC [VEGF-Apt2]	0.467	–
CGAAGGGAA [VEGF-Apt1]	320000	–
GAAAGGCGA [VEGF-Apt3]	–	6.8
